The results in this text go back to patent publication US20050169919A1 (published 2005).

To fix the notation:
B1: B7 antigen (B7-1) stably expressed on CHO cells (ligand, human, UniProt P33681 35-288, looked up)
chain: VIHVTKEVKEVATLSCGHNVSVEELAQTRIYWQKEKKMVLTMMSGDMNIWPEYKNRTIFDITNNLSIVILALRPSDEGTYECVVLKYEKDAFKREHLAEVTLSVKADFPTPSISDFEIPTSNIRRIICSTSGGFPEPHLSWLENGEELNAINTTVSQDPETELYAVSSKLDFNMTTNHSFMCLIKYGHLRVNQTFNWNTTKQEHFPDNLLPSWAITLISVNGIFVICCLTYCFAPRCRERRRNERLRRESVRPV
notes: whole, on cells; also called B7/BB-1; CD80

Experiment [1] addresses B7 antigen on lymphoblastoid cell line (PM LCL) (human) (UniProt P33681). In words: cell-based or functional assay.
The target in experiment [2] is B7Ig fusion protein (human) (UniProt P33681). In words: solid phase competition for binding of 125I-B7Ig (4 nM) to immobilized CTLA4Ig.
A further experiment addresses T1, CTLA4Ig fusion protein (human, UniProt P01857-1 99-330 = IgG part).
T1 construct: domain: hinge, CH2 and CH3 regions; also called wild-type CTLA4Ig; human CTLA4Ig
Kind of experiment: immunoprecipitation from 125I surface-labeled B7+ CHO extract, SDS-PAGE.

Experiment [3] deals with B1. Kind of experiment: indirect cell binding enzyme immunoassay on ethanol-fixed B7-1+ CHO cells.

What is called IC50 is the concentration at which inhibition is half-maximal. High values mean weaker potency, low ones greater potency. For “murine monoclonal antibody BB-1 (anti-B7 antigen)”, the inhibition of Th-induced IgM production by allogeneic CD19+ B cells (ELISA) in experiment [1] was found to be 65%. Moreover, the concentration for half-maximal inhibition (IC50) in experiment [2] worked out at 22 nM. Regarding B1, in the experiment with CTLA4Ig fusion protein, the binding result is “binds”.

B2: CTLA4/CD28Ig hybrid fusion protein HS2 (Fc fusion, human)
chain: AMHVAQPAVVLASSRGIASFVCKYSYNLFSREFRASLHKGLDSAVEVCVVYGNYSQQLQVYSKTGFNCDGKLGNESVTFYLQNLYVNQTDIYFCKIELMYPPPYYLGIGNGTQIYVIDPEPCPD
notes: range 23-96; not shown: hinge and constant regions of human IgG1, hinge cysteines mutated; junction printed DQE
As for B2, in experiment [3], the binding result is given as “binds”.

B3: CTLA4/CD28Ig hybrid fusion protein HS6 (Fc fusion, human)
chain: AMHVAQPAVVLASSRGIASFVCEYSYNLFSREVRVTVLRQADSQVTEVCAATYMMGNELTFLDDSICTGTSSGNQVNLTIQGLRAMDTGLYICKVELMYPPPYYLGIGNGTQIYVIDPEPCPD
notes: range 25-32; not shown: hinge and constant regions of human IgG1, hinge cysteines mutated; junction printed DQE
Turning to B3, in experiment [3], the binding result is on record as “binds”.
